Experimental data: US20220145281A1, “NEW VACCINAL STRATEGY TO PREVENT OR TREAT RHUMATOID ARTHRITIS” (INSERM (Institut National de la Santé et de la Recherche …, priority 2019, published 2022)

How the values were obtained:
[1] = system: Mononuclear cells (PBLs) from patients and controls; test: T cell proliferation assay (BRDU incorporation); type: cell-based, human; conditions: healthy controls, 11, 5 μg/ml peptide, 6 days
Description: T cell proliferation assay. Mononuclear cells from patients were isolated from 20 ml of heparinized blood by centrifugation through Ficoll-Histopaque (Sigma Aldrich, St. Quentin-Fallavier, France). Cells were cultured at a density of 10^6 cells/ml in RPMI 1640 with 10% self-serum in the presence of 1 μg/ml of human PAD4 or human fibrinogen or PHA (phytohemagglutinin) or 5 μg/ml of PAD4 peptide. After 6 days of culture at 37° C., proliferative response to proteins was evaluated using the colorimetric bromodeoxyuridine kit (Roche Diagnostics, Meylan, France). Positive T cell responses were defined by optical densities (OD) higher than twice the ODs for cells cultured without protein or peptide.

[2] = target: T1, HLA-DRB1*04:01 (Homo sapiens, UniProt P01903+P01911, A100K/A169T/F76Y/I96L/K127E/L162R/M171V/N62H/P40V/Q125Y/R42H/S133A/S149N/S66Y/V115G/V209L/W38E); test: HLA-DR peptide-binding assay (ELISA); conditions: positive binding = OD equal to the OD for the HA peptide
T1 construct: Purification of HLA-DRB1 molecules from lymphoblastoid cell lines; Total protein extracts were immunoprecipitated by anti-HLA-DR LB3.1 antibody; endogenous in cells; host or cells: SAVC lymphoblastoid cell line, HLA homozygous

[3] = target: T2, HLA-DRB1*01:01 (Homo sapiens, UniProt P01903+P01911, A100R/D57E/F55L/F60I/F76Y/I96L/L162R/M171V/P40L/Q125E/R42F/V115G/Y59C); test: HLA-DR peptide-binding assay (ELISA); conditions: positive binding = OD equal to the OD for the HA peptide
T2 construct: Purification of HLA-DRB1 molecules from lymphoblastoid cell lines; Total protein extracts were immunoprecipitated by anti-HLA-DR LB3.1 antibody; endogenous in cells; host or cells: JESTHOM lymphoblastoid cell line, HLA homozygous

[4] = system: 5 purified HLA-DR molecules; test: HLA-DR peptide-binding assay, panel of alleles and likelihood calculation per genotype; parameters: species or system human
[5] = target: HLA-DRB1*04:02 (Homo sapiens, UniProt P01903+P01911, A100E/A169T/F76Y/K127E/L162R/M171V/N62H/P40V/Q125Y/Q99D/R42H/S133A/S149N/S66Y/V209L/W38E); test: HLA-DR peptide-binding assay (ELISA); conditions: positive binding = OD equal to the OD for the HA peptide
[6] = target: HLA-DRB1*07:01 (Homo sapiens, UniProt P01903+P01911, A100R/A102G/A103Q/D57E/D86V/E43K/F76Y/K127E/L162R/M171V/P40G/Q125H/Q99D/R33Q/R42Y/R54Q/S133A/S66F/T210M/V115G/Y107V/Y59L/Y89S); test: HLA-DR peptide-binding assay (ELISA); conditions: positive binding = OD equal to the OD for the HA peptide
[7] = target: HLA-DRB1*04:04 (Homo sapiens, UniProt P01903+P01911, A100R/A169T/F76Y/I96L/K127E/L162R/M171V/N62H/P40V/Q125Y/R42H/S133A/S149N/S66Y/V209L/W38E); test: HLA-DR peptide-binding assay (ELISA); conditions: positive binding = OD equal to the OD for the HA peptide
[8] = target: T3, HLA-DR molecule HLA-DRB1*04:01, purified from lymphoblastoid cell line SAVC (human); test: ELISA: peptide coated on plate, purified HLA-DR added
T3 construct: Immunoprecipitated from detergent cell lysate with anti-HLA-DR LB3.1 and eluted at pH 2
Description: (§1) HLA-DR Peptide-binding assay. ELISA plates were coated with 10 μg of PAD4 or fibrinogen peptide/well and blocked in 1% bovine serum albumin (BSA). One microgram of purified HLA-DR molecule was added to plates. After washing, bound HLA-DR was detected by biotinylated anti HLA-DR antibody B8122 (Immunotech, Marseille, France), followed by peroxidase-conjugated avidin. Peroxidase-conjugated anti-mouse IgG and peroxidase-conjugated avidin were supplied by Sigma Aldrich (St. Quentin-Fallavier, France). Optical density was read at 405 nm. The binding of each of the purified HLA-DR alleles was assayed on ELISA plates coated with peptides from PAD4 or Fibrinogen (each in duplicate wells) and, as controls, 2 wells coated with a classical positive binder, influenza hemagglutinin (HA) peptide ([…]). Positive binding was defined as an OD value equal to the OD for the HA peptide.

[9] = system: CD4 T cells; test: Flow cytometry analysis of whole blood samples stimulated with PAD4; type: cell-based, human; conditions: 10 RA patients and 7 controls
From the text: One patient with RA (2.4%) and none of the patients with psoriatic arthritis or healthy controls had proliferative response to citrullinated fibrinogen. To confirm that the proliferative response observed in PBLs cultured with PAD4 was due to T cells, we ran flow cytometry analysis in an extra 10 RA patients and 7 controls.

[10] = target: T4, HLA-DR molecule HLA-DRB1*04:04, purified from lymphoblastoid cell line PEYSSON (human); test: ELISA: peptide coated on plate, purified HLA-DR added
T4 construct: Immunoprecipitated from detergent cell lysate with anti-HLA-DR LB3.1 and eluted at pH 2
Description: as §1

[11] = target: T5, HLA-DR molecule HLA-DRB1*04:02, purified from lymphoblastoid cell line YAR (human); test: as above
T5 construct: Immunoprecipitated from detergent cell lysate with anti-HLA-DR LB3.1 and eluted at pH 2
Description: as §1

[12] = target: T6, HLA-DR molecule HLA-DRB1*01:01, purified from lymphoblastoid cell line JESTHOM (human); test: as above
T6 construct: Immunoprecipitated from detergent cell lysate with anti-HLA-DR LB3.1 and eluted at pH 2
Description: as §1

[13] = target: T7, HLA-DR molecule HLA-DRB1*07:01, purified from lymphoblastoid cell line MOU (human); test: as above
T7 construct: Immunoprecipitated from detergent cell lysate with anti-HLA-DR LB3.1 and eluted at pH 2
Description: as §1

VRVFQATRGKLSSKCSVVLG (Synthetic Peptide 22) [20-mer peptide from human PAD4]
subjects with T cell proliferative response to peptide (OD ratio higher than 2) [1]: none of 11
binding to HLA-DRB1*04:01 [2]: bind HLA-DRB1*04:01 only

DPGVEVTLTMKAASGSTGDQ (Synthetic peptide p8) [peptide 8, 20-mer peptide from human PAD4]
binding to HLA-DRB1*01:01 [3]: binds
binding to the five tested HLA-DRB1 alleles ([4]; HLA-DRB1*01:01, *04:01, *04:02, *04:04, *07:01): bound all five tested HLA-DRB1 alleles
binding to HLA-DRB1*04:02 [5]: binds
subjects with T cell proliferative response to peptide (OD ratio higher than 2) [1]: 0/11 and no healthy control
subjects with T cell proliferative response to peptide (OD ratio higher than 2) ([1]; listed as Peptide 8): 0
binding to HLA-DRB1*04:01 [2]: binds
binding to HLA-DRB1*07:01 [6]: binds
binding to HLA-DRB1*04:04 [7]: binds

B1: peptide 22 from PAD4 (VRVFQATRGKLSSKCSVVLG) (peptide)
peptide: VRVFQATRGKLSSKCSVVLG
notes: Synthetic 20-mer, coated on the ELISA plate (10 ug/well); also called p22; peptide p22
binding result [8]: binds

B2: peptidyl arginine deiminase 4 (protein, listed as Homo sapiens)
chain: MAQGTLIRVTPEQPTHAVCVLGTLTQLDICSSAPEDCTSFSINASPGVVVDIAHSPPAKKKSTGSSTWPLDPGVEVTLTMKAASGSTGDQKVQISYYGPKTPPVKALLYLTAVEISLCADITRTGKVKPTRAVKDQRTWTWGPCGQGAILLVNCDRDNLESSAMDCEDDEVLDSEDLQDMSLMTLSTKTPKDFFTNHTLVLHVARSEMDKVRVFQATRGKLSSKCSVVLGPKWPSHYLMVPGGKHNMDFYVEALAFPDTDFPGLITLTISLLDTSNLELPEAVVFQDSVVFRVAPWIMTPNTQPPQEVYACSIFENEDFLKSVTTLAMKAKCKLTICPEEENMDDQWMQDEMEIGYIQAPHKTLPVVFDSPRNRGLKEFPIKRVMGPDFGYVTRGPQTGGISGLDSFGNLEVSPPVTVRGKEYPLGRILFGDSCYPSNDSRQMHQALQDFLSAQQVQAPVKLYSDWLSVGHVDEFLSFVPAPDRKGFRLLLASPRSCYKLFQEQQNEGHGEALLFEGIKKKKQQKIKNILSNKTLREHNSFVERCIDWNRELLKRELGLAESDIIDIPQLFKLKEFSKAEAFFPNMVNMLVLGKHLGIPKPFGPVINGRCCLEEKVCSLLEPLGLQCTFINDFFTYHIRHGEVHCGTNVRRKPFSFKWWNMVP
notes: Human PAD4 protein produced in baculovirus expression system
Likelihood to bind at least one peptide from ([4]; genotype DRB1*01:01/01:01): 0.061
Likelihood to bind at least one peptide from ([4]; genotype DRB1*01:01/04:01): 0.165
Likelihood to bind at least one peptide from ([4]; genotype DRB1*01:01/04:04): 0.120
Likelihood to bind at least one peptide from ([4]; genotype DRB1*01:01/07): 0.076
Likelihood to bind at least one peptide from ([4]; genotype DRB1*04:01/04:01): 0.258
Likelihood to bind at least one peptide from ([4]; genotype DRB1*04:01/04:04): 0.218
Likelihood to bind at least one peptide from ([4]; genotype DRB1*04:01/07): 0.178
Likelihood to bind at least one peptide from ([4]; genotype DRB1*04:02/07): 0.090
Likelihood to bind at least one peptide from ([4]; genotype DRB1*04:04/04:02): 0.134
Likelihood to bind at least one peptide from ([4]; genotype DRB1*04:04/04:04): 0.176
Likelihood to bind at least one peptide from ([4]; genotype DRB1*04:04/07): 0.134
Likelihood to bind at least one peptide from ([4]; genotype DRB1*07/07): 0.090
expression of CD154 (T cell early activation marker) on CD4 T cells [9]: increased expression of CD154
production of TNF alpha by CD4 T cells [9]: increased production of TNF alpha

B3: peptide 8 from PAD4 (DPGVEVTLTMKAASGSTGDQ) (peptide)
peptide: DPGVEVTLTMKAASGSTGDQ
notes: Synthetic 20-mer, coated on the ELISA plate (10 ug/well); also called p8; peptide p8
binding result [10]: binds
binding result [8]: binds
binding result [11]: binds
binding result [12]: binds
binding result [13]: binds
